Consider 12 sequences from the DeepSol protein solubility set.

The series can be described thus: soluble on expression in E. coli; label from the status in PepcDB or PDB records.
For the sequence “MGSDKIHHHHHHMIMLEKPTCRPNNPNFSSGPCSKRPGWTLEVLKNALVGRSHRSREAALRLAEIVDLTREVLEVPSDYRIGIVPASDTGAVEMSLWSLLGERGVDMAAWESFGSGWITDVVEKLKLSDVRRFEAPYGELPDLTQMDFDRDVVFTWNGTTSGVRIPNADFIPERRAGLTICDATSAAFAQNLDFSKLDVVTFSWQKVLGGEAAHGMLILSPRAVERLESYVPTWPMPQIFCLTKDGKLNENIFKGVTINTPSLLCIEDFLDALKWAKAQGGLHALMARVEKNFAVLDAFVRKTPWLEYLAKDPQVRSNTSVCLDIVDPVVTALDTEKRVSFIKAIVNRLDEEEAAYDIGSYRDAPPGLRIWTGITIEASDLEILTSWLEWAFQVEKAQL”, the “soluble on expression in E. coli” value is “not soluble”.

With “MKDLDFSKKPLIGVVHLKPLPGSPRYGGDFEEVIEWAIRDAKTYEEAGFDGIIVENFGDSPFSKTLPREVIPAFTVVAKAVKKEVSLPLGINALRNDCIVAYSIAHAVGGSFIRVNVLTGVAFTDQGIIEGCARELWNVKRIIGGDILTLADVHVKHAVHFTNFEDAVKDTVERGLADGIIVTGRRTGESISLEDLILAKRVSSIPVLVGSGVNPRNFRTLFKYADGFIVGTWVKENGKINNPVSLERAKILVRMKNSLMGVLEHHHHHH”, the “soluble on expression in E. coli” value is on record as “not soluble”.

Turning to “MGSDKIHHHHHHMTSFISVYLKIKYYICIYKGNLLVKSILLESSCVILIKYSAQYPNLSNSMIKMNKTISDVDFDDEQEIKLPLSNRQSIAILLGAGFSAPKGYPIGNDINKKIQNFDDSNIDFSPSGMLAISKDGHKPLFQIEGVRNIHQKYFIFCKRLINEYTKAHSNQFDYEQFYDFIKSDEAKDNRYRLLCQDLINKSDDYDNYLFNVVHIYNQMVLYLLKDKEGKSYYDGEPFKVNCADAYNEFLLYLSQQSKECIINIHTLNHDLLIESFNQTSNINGNISDGFDEYGSEYYGILEHDHRNYNCRLERYTGRYNTPIRLYKLHGSIDYVPFYRRDKNGFMKPEKYVKIKWGIGASNIIKGRKSKYGYDASPFEYHADFLTGTTSKIKRYDETLLFKKLFKKFRNNLSKANSLIIIGYGCKDKGINEMIKDNFDYKNKPSFIIDKYAGASVETFAQKINAKIIKESIERLDKTWFV”, the “soluble on expression in E. coli” value is reported as “not soluble”.

In the case of “MPVSNEIWQLLSRLAEDIRPIGVNISAGEPNRLWTEAKWRALLERFPGERFVVLSGPDDLDAKRRLEEQCPNAVASPPTRNLYEASCIVAKLRLLVTPDTSMVHVASATGTPVAGLYREAPQDISRFGPYAIPYEIVISPTGEVSGIKPESVADAVRRLMARAIGREALEHHHHHH”, the “soluble on expression in E. coli” value is given as “not soluble”.

Regarding “MSLDLRKSKELTGIEAHINDNKKEESNVEYFEKLRSALLDGVNKGRSLLKHLPVTRIEGQSFRVDIIKFEDGVRVVKQEYKPIPLLKKKFYVGIRELNDGTYDVSIATKAGELLVKDEESLVIREILSTEGIKKMKLSSWDNPEEALNDLMNALQEASNASAGPFGLIINPKRYAKLLKIYEKSGKMLVEVLKEIFRGGIIVTLNIDENKVIIFANTPAVLDVVVGQDVTLQELGPEGDDVAFLVSEAIGIRIKNPEAIVVLEEGHHHHHH”, the “soluble on expression in E. coli” value was “soluble”.

For “MSLKTLATIGDNCVDIYPQLNKAFSGGNAVNVAVYCTRYGIQPGCITWVGDDDYGTKLKQDLARMGVDISHVHTKHGVTAQTQVELHDNDRVFGDYTEGVMADFALSEEDYAWLAQYDIVHAAIWGHAEDAFPQLHAAGKLTAFDFSDKWDSPLWQTLVPHLDFAFASAPQEDEALRLKMKAIVARGAGTVIVTLGENGSIAWDGAQFWRQAPEPVTVIDTMGAGDSFIAGFLCGWSAGMTLPQAMAQGTACAAKTIQYHGAEGHHHHHH”, the “soluble on expression in E. coli” value was “soluble”.

Consider “GMATSTDRTQEIQKLHELIKNIDYGMFTTVDDDGSLHSYPMSKSGDINSEATLWFFTYAGSHKVTEIEHHEQVNVSFSSPEQQRYVSISGTSQLVKDRNKMRELWKPELQTWFPKGLDEPDIALLKVNINQVNYWDSTSSFKPQTISF”, for which the “soluble on expression in E. coli” value is listed as “soluble”.

With “MGSDKIHHHHHHMLPGSRSLSKELGINRKTVQAVYEELEAQGWLVTRPRKGTFVADVLPEKKPHIEPRADRKVSNKPIIQQVAQRPHNDGVPDPRLIPYELFSRAYRHALIKITQNQYMGYGDPRGMAELRQALKQMLSMERFMNVAEDEICVVRGSQMGIFLASRALPNRQGVIVVEELYYPSAVKAFQSNGFQVVSVKLDDQGIVIEDLERILKEHSVAAIYTTPHHQYPTTVTMTMSRRLQLLELSKKWGFYIIEDDYDHEFHYDSRPMPPLASLPHSELVIHVGSLSKVFAPGIRLGYIVAAPTIIQTITEDILLIDRQGNNITELALADLMQRGEIKRHIRKMKKIYQLRRDHALAEFQRVFAESIEIQPPAGGMALWVKFQKSFTQDQLIKLKELNIDTEQKFKQKECANHCIRFGFAALSEKEITSLIETLNEAL”, the “soluble on expression in E. coli” value is listed as “not soluble”.

For “MSLPINVPSGLPAVKVLAKEGIFVMTEKRAIHQDIRPLEILILNLMPDKIKTEIQLLRLLGNTPLQVNVTLLYTETHKPKHTPIEHILKFYTTFSAVKDRKFDGFIITGAPVELLPFEEVDYWEELTEIMEWSRHNVYSTMFICWAAQAGLYYFYGIPKYELPQKLSGVYKHRVAKDSVLFRGHDDFFWAPHSRYTEVKKEDIDKVPELEILAESDEAGVYVVANKSERQIFVTGHPEYDRYTLRDEYYRDIGRNLKVPIPANYFPNDDPTKTPILTWWSHAHLFFSNWLNYCIYQKTPYRLEDIHEGHHHHHH”, the “soluble on expression in E. coli” value is “soluble”.

For “MRLFHELLGPLELPDRFSRIVSLAPNLTDALFALGLGERLVGRSAFCHRPAPVLALPVVASYTKTRLELLRSLKPDLVLLSTGVQREQALRLKEEGFPVYAVPLPTSPYGILENLSTLGHLLDLEERAVALAHELSGRYAALRGRFDLRVYFEMDLGGPITVGRGSYIAQALLHMGLKPIFLDVPQAYFAPDLEEVRRRAPDLFLYEPKPWGKNPLEKARALARERGWDFPVAATDGDELAHYGPMFFGFLEKLARRVEETLGQA”, the “soluble on expression in E. coli” value is on record as “soluble”.

Take “GSHMASMTGGQQMGRGSMLPRLICINDYEQHAKSVLPKSIYDYYRSGANDEETLADNIAAFSRWKLYPRMLRNVAETDLSTSVLGQRVSMPICVGATAMQRMAHVDGELATVRACQSLGTGMMLSSWATSSIEEVAEAGPEALRWLQLYIYKDREVTKKLVRQAEKMGYKAIFVTVDTPYLGNRLDDVRNRFKLPPQLRMKNFETSTLSFSPEENFGDDSGLAAYVAKAIDPSISWEDIKWLRRLTSLPIVAKGILRGDDAREAVKHGLNGILVSNHGARQLDGVPATIDVLPEIVEAVEGKVEVFLDGGVRKGTDVLKALALGAKAVFVGRPIVWGLAFQGEKGVQDVLEILKEEFRLAMALSGCQNVKVIDKTLVRKNPLAVSKI”: the “soluble on expression in E. coli” value was “soluble”.

Turning to “MFHLRTCAAKLRPLTASQTVKTFSQNRPAAARTFQQIRCYSAPVAAEPFLSGTSSNYVEEMYCAWLENPKSVHKSWDIFFRNTNAGAPPGTAYQSPLPLSRGSLAAVAHAQSLVEAQPNVDKLVEDHLAVQSLIRAYQIRGHHVAQLDPLGILDADLDSSVPADIISSTDKLGFYGLDESDLDKVFHLPTTTFIGGQESALPLREIIRRLEMAYCQHIGVEFMFINDLEQCQWIRQKFETPGIMQFTNEEKRTLLARLVRSTRFEEFLQRKWSSEKRFGLEGCEVLIPALKTIIDKSSENGVDYVIMGMPHRGRLNVLANVIRKELEQIFCQFDSKLEAADEGSGDVKYHLGMYHRRINRVTDRNITLSLVANPSHLEAADPVVMGKTKAEQFYCGDTEGKKVMSILLHGDAAFAGQGIVYETFHLSDLPSYTTHGTVHVVVNNQIGFTTDPRMARSSPYPTDVARVVNAPIFHVNSDDPEAVMYVCKVAAEWRSTFHKDVVVDLVCYRRNGHNEMDEPMFTQPLMYKQIRKQKPVLQKYAELLVSQGVVNQPEYEEEISKYDKICEEAFARSKDEKILHIKHWLDSPWPGFFTLDGQPRSMSCPSTGLTEDILTHIGNVASSVPVENFTIHGGLSRILKTRGEMVKNRTVDWALAEYMAFGSLLKEGIHIRLSGQDVERGTFSHRHHVLHDQNVDKRTCIPMNHLWPNQAPYTVCNSSLSEYGVLGFEAGLRMASPNALVLWEAQFGDFHNTAQCIIDQFICPGQAKWVRQNGIVLLLPHGMEGMGPEHSSARPERFLQMCNDDPDVLPDLKEANFDINQLYDCNWVVVNCSTPGNFFHVLRRQILLPFRKPLIIFTPKSLLRHPEARSSFDEMLPGTHFQRVIPEDGPAAQNPENVKRLLFCTGKVYYDLTRERKARDMVGQVAITRIEQLSPFPFDLLLKEVQKYPNAELAWCQEEHKNQGYYDYVKPRLRTTISRAKPVWYAGRNPAAAPATGNKKTH”, the “soluble on expression in E. coli” value is on record as “soluble”.
